From US11357847B2, “Modified HSV gD protein and vaccine containing same” (KM Biologics Co., Ltd., priority 2017, dated 2022)
Where a chain is given by its changes, count along the chain named. In names and notes the source's numbering stands.

B1: gD1-315v3V: gD1-315 with glycochain at SC-F and V231W (protein)
chain: KYALADPSLKMADPNRFRGKNLPVLDQLTDPPGVKRVYHIQPSLEDPFQNASIPITVYYAVLERACRSVLLHAPSEAPQIVRGASDEARKHTYNLTIAWYRMGDNCAIPITVMEYTECPYNKSLGVCPIRTQPRWSYYDSFSAVSEDNLGFLMHAPAFETAGTYLRLVKINDWTEITQFILEHRARASCKYALPLRIPPAACLTSKAYQQGVTVDSIGMLPRFIPENQRTWALYSLKIAGWHGPKPPYTSTLLPPELSDTTNATQPELVPEDPEDSALLEDPAGTVSSQIPPNWHIPSIQDVAPHHAPAAPSNPGHHHHHH
B2: gD1-315v3: gD1-315 with glycochain introduced at P50 (SC-F) (protein)
chain: B1 chain with W231V
B3: gD1-315V (protein)
chain: B1 chain with N50P, A51P
B4: gD1-315v5V: gD1-315 with glycochains at SC-A, SC-F and V231W (protein)
chain: B1 chain with R186N
B5: gD1-315v3-55V: Table 12: glycochain D, F, T cell epitope peptide and V231W (protein)
chain: KYALADPSLKMADPNRFRGKNLPVLDQLTDPPGVKRVYHIQPSLEDPFQNASIPITVYYAVLERACRSVLLHAPSEAPQIVRGASDEARKHTYNLTIAWYRMGDNCAIPITVMEYTECPYNKSLGVCPIRTQPRWSYYDSFSAVSEDNLGFLMHAPAFETAGTYLRLVKINDWTEITQFILEHRARASCKYALPLRIPPAACLTSKAYQQGVTVDSIGMLPRFIPENQRTWALYSLKIAGWHGPKPPYTSTLLPPELSDTTNATQPELVPEDPEDSALLEDPAGTVSSQIPPNWHIPSIQDVAPHHAPAAPSNPGGPGPGIAFWVRRRAQMAPKPLRIAFWVRRRAQMAPKPLRHHHHHH
modifications: left off: small tags and cut ends
B6: gD1-315v5-55V: gD1-315 with glycochains at SC-A, SC-F, T cell epitope peptide DP5 and V231W (protein)
chain: B5 chain with R186N
modifications: left off: small tags and cut ends

How the values were obtained:
[1] = system: various anti-gD2 antibodies; assay: Reactivity of gD variants with anti-gD2 antibodies (competitive ELISA); assay type: binding, human; details: for Reactivity with anti-gD2 antibody 1 / Reactivity with anti-gD2 antibody 5 / Reactivity with anti-gD2 antibody 13 / Reactivity with anti-gD2 antibody 72 / Reactivity with anti-gD2 antibody 75 / Reactivity with anti-gD2 antibody 78 / Reactivity with anti-gD2 antibody 82: immobilized gD variant; for Relative reactivity with antibody No. 82 (gD1-315 wild-type set to 1): FIG. 13
From the text: Each anti-gD2 monoclonal antibody and each gD variant were expressed using an Expi293 expression system.

HSV-2 MS strain = assay: Mouse infection-prevention test of modified gD (genital herpes infection model); assay type: in vivo, BALB/c mice; design: key to Determination (vs gD1-315) / Determination# (vs gD1-315): ++: minimum effective dose based on the Significant difference test in three-fold common ratio relative to gD1-315(WT) of two or more doses stronger; +: those of one dose stronger; ±: those of an equivalent value
Procedure: Immunogenicity test of the modified gD antigen was performed using the wild-type gD antigen gD1-315 (WT) as a positive control and saline as a negative control. A predetermined amount of antigen was dissolved in saline for injection (saline) with MPLA (10 μg/mouse) and CpG (1 μg/mouse) and immunized to mice at a volume of 200 μL/mouse. BALB/c mice (5 weeks old, female) were used for the study and immunized subcutaneously in back at 2-week intervals for a total of 3 times (N=4 cases per group). Two weeks after the final immunization (third dose), blood was collected and serum was prepared for each individual. The prepared serum was serially diluted and assessed for neutralizing antibody-inducing activity against HSV-2 (50% plaque number-reducing activity).
An infection-prevention test in the preventive administration of modified gD antigen was performed using a mouse genital herpes infection model. Similar to the mouse immunogenicity test described above, mice were immunized with the number of N=10 cases per group. Depo-Provera was inoculated subcutaneously at 2 mg/mouse 6 days prior to viral inoculation to improve the multiplicity of infection upon viral inoculation 2 weeks after final immunization (third dose). 5×10^5 PFU/20 μL HSV-2 MS strain was inoculated transvaginally under anesthesia and observed for 21 days. Infection prevention ability was evaluated using survival time (survival rate) as index.
The infection model of the mouse genital herpes infection model was used to evaluate infection prevention ability of various modified gD in preventive administration. The number of animal cases in each group was set to n=10, and wild-type gD (gD1-315) was used as a positive control and saline was used as a negative control. The experiments were performed a total of four times (experiments 1-4) and four doses of 0.1 μg/mouse/time, 0.03 μg/mouse/time, 0.01 μg/mouse/time and 0.003 μg/mouse/time were set for all of the positive control, negative control, and subject modified gD antigen. Depo-Provera was inoculated subcutaneously at 2 mg/mouse 6 days prior to viral inoculation to improve the multiplicity of infection upon viral inoculation 2 weeks after final immunization (third dose). 5×10^5 PFU/20 HSV-2 MS strain was inoculated transvaginally under anesthesia and observed for 21 days. Infection prevention ability was evaluated using survival time (survival rate) as index. Mean values of those were plotted in the graph. A Significant difference test for the negative control group was performed by the Kaplan-Meier method, and those with a minimum effective dose based on the Significant difference test in three-fold common ratio relative to wild type gD of two or more doses stronger were determined to be “++”, those of one dose stronger were determined to be “+”, and those of an equivalent value were determined to be “±”.

[2] = Experiment 3, 0.01 μg/head/time
[3] = Experiment 3, 0.03 μg/head/time
[4] = Experiment 3, fourth dose line, 0.03 μg/head/time
[5] = Experiment 2, 0.003 μg/head/time
[6] = Experiment 2, 0.01 μg/head/time
[7] = Experiment 2, 0.03 μg/head/time
[8] = Experiment 1, 0.003 μg/head/time
[9] = Experiment 1, 0.01 μg/head/time
[10] = Experiment 1, 0.03 μg/head/time
[11] = Experiment 4, 0.01 μg/head/time
[12] = Experiment 4, 0.03 μg/head/time
[13] = Experiment 4, fourth dose line, 0.03 μg/head/time

Row | Molecule | Reactivity with anti-gD2 antibody 1 [1] | Reactivity with anti-gD2 antibody 5 [1] | Reactivity with anti-gD2 antibody 13 [1] | Reactivity with anti-gD2 antibody 72 [1] | Reactivity with anti-gD2 antibody 75 [1] | Reactivity with anti-gD2 antibody 78 [1] | Reactivity with anti-gD2 antibody 82 [1] | Relative reactivity with antibody No. 82 (gD1-315 wild-type set to 1) [1] | also measured
1 | B1 | + ((+): 70% or more) | − ((−): less than 30%) | + ((+): 70% or more) | − ((−): less than 30%) | − ((−): less than 30%) | − ((−): less than 30%) | + ((+): 70% or more) | – | Mean survival time (HSV-2 MS strain; [2]): 7 days; Significant difference test (vs saline) (HSV-2 MS strain; [2]): * (* 0.01 = < p < 0.05); Mean survival time (HSV-2 MS strain; [3]): >21 days; Significant difference test (vs saline) (HSV-2 MS strain; [3]): *** (*** p < 0.001); Mean survival time (HSV-2 MS strain; Experiment 3, 0.1 μg/head/time): >21 days; Significant difference test (vs saline) (HSV-2 MS strain; Experiment 3, 0.1 μg/head/time): *** (*** p < 0.001); Mean survival time (HSV-2 MS strain; [4]): 6 days; Significant difference test (vs saline) (HSV-2 MS strain; [4]): N.S.; Determination# (vs gD1-315) (HSV-2 MS strain; Experiment 3, minimum effective dose relative to gD1-315(WT)): ±
2 | B2 | + ((+): 70% or more) | − ((−): less than 30%) | + ((+): 70% or more) | − ((−): less than 30%) | − ((−): less than 30%) | − ((−): less than 30%) | + ((+): 70% or more) | – | –
3 | B3 | + ((+): 70% or more) | + ((+): 70% or more) | + ((+): 70% or more) | + ((+): 70% or more) | + ((+): 70% or more) | + ((+): 70% or more) | + ((+): 70% or more) | – | –
4 | B4 | + ((+): 70% or more) | − ((−): less than 30%) | + ((+): 70% or more) | ± ((±): 30% or more and less than 70%) | ± ((±): 30% or more and less than 70%) | − ((−): less than 30%) | + ((+): 70% or more) | – | –
5 | B5 | + ((+): 70% or more) | − ((−): less than 30%) | + ((+): 70% or more) | ± ((±): 30% or more and less than 70%) | ± ((±): 30% or more and less than 70%) | − ((−): less than 30%) | + ((+): 70% or more) | slightly reduced | Mean survival time (HSV-2 MS strain; [5]): 7 days; Significant difference test (vs saline) (HSV-2 MS strain; [5]): N.S.; Mean survival time (HSV-2 MS strain; [6]): >16.5 days; Significant difference test (vs saline) (HSV-2 MS strain; [6]): N.S.; Mean survival time (HSV-2 MS strain; [7]): >22 days; Significant difference test (vs saline) (HSV-2 MS strain; [7]): ** (** 0.001 = < p < 0.01); Mean survival time (HSV-2 MS strain; Experiment 2, 0.1 μg/head/time): >22 days; Significant difference test (vs saline) (HSV-2 MS strain; Experiment 2, 0.1 μg/head/time): *** (*** p < 0.001); Determination# (vs gD1-315) (HSV-2 MS strain; Experiment 2, minimum effective dose relative to gD1-315(WT)): +
6 | B6 | + ((+): 70% or more) | − ((−): less than 30%) | + ((+): 70% or more) | + ((+): 70% or more) | − ((−): less than 30%) | − ((−): less than 30%) | + ((+): 70% or more) | slightly reduced | Mean survival time (HSV-2 MS strain; [8]): 10 days; Significant difference test (vs saline) (HSV-2 MS strain; [8]): ** (** 0.001 = < p < 0.01); Mean survival time (HSV-2 MS strain; [9]): >21 days; Significant difference test (vs saline) (HSV-2 MS strain; [9]): *** (*** p < 0.001); Mean survival time (HSV-2 MS strain; [10]): >21 days; Significant difference test (vs saline) (HSV-2 MS strain; [10]): *** (*** p < 0.001); Mean survival time (HSV-2 MS strain; Experiment 1, 0.1 μg/head/time): >21 days; Significant difference test (vs saline) (HSV-2 MS strain; Experiment 1, 0.1 μg/head/time): *** (*** p < 0.001); Determination (vs gD1-315) (HSV-2 MS strain; Experiment 1, minimum effective dose relative to gD1-315(WT)): ++; Mean survival time (HSV-2 MS strain; [11]): >21 days; Significant difference test (vs saline) (HSV-2 MS strain; [11]): * (* 0.01 = < p < 0.05); Mean survival time (HSV-2 MS strain; [12]): >21 days; Significant difference test (vs saline) (HSV-2 MS strain; [12]): *** (*** p < 0.001); Mean survival time (HSV-2 MS strain; Experiment 4, 0.1 μg/head/time): >21 days; Significant difference test (vs saline) (HSV-2 MS strain; Experiment 4, 0.1 μg/head/time): *** (*** p < 0.001); Mean survival time (HSV-2 MS strain; [13]): 8.5 days; Significant difference test (vs saline) (HSV-2 MS strain; [13]): N.S.; Determination# (vs gD1-315) (HSV-2 MS strain; Experiment 4, minimum effective dose relative to gD1-315(WT)): ++
